Assay results taken from the DeepSol protein solubility set.

Assay: soluble on expression in E. coli; label from the status in PepcDB or PDB records

Sequence | soluble on expression in E. coli
MTILPVKKKREKDSQQRSVSTIGSSAENSRQQLSGPSCSSSASSSSSAAKRIRSQEDGPPSKRWVLSASSTSSTNKSPIPSSSPVLPPPQPEIEPNRSQSPGNADYNSDDEYEMQNIRDDEIETEFSNRLAARGLIIKEMVGDGACMFRSIAEQIYGDQEMHGQIRRLCMDYMSNNRDHFKEFITENFENYIQRKREENVHGNHVELQAISEIKKKSNYILKNSLHSINSEPINVLLPRPEPEATALTDGSASTSNAAPPPSTVPIQQNPPLRLSYHRAVHYNAILAPNIPTIGIGLGLPGMIPGSADKELMSTAMKTSELEHIEETMLQDKIDMTDFQRTQADIEDQITRESLISYLNDFEKSKNAPSTSAGAPGPSNFSGEPPVSGSGLYEEMLAAQSLEWDAYTDDVAIAEAMLVSQQDYMSNKPSTSSSGSGPSTSE | not soluble
MAKGSSDKDNGYGNIRTSTSLSICCQDSHLTTPIAPIAPELYSLKVPKDYTPETTSTMRRSLESRLAWLGRQSYVFRSLKQLETVTHNATIRTFFWKDGSVSSSTGGNDGFWIKDELHAGA | not soluble
MPEGKIIKALSGFYYVLDESEDSDKVIQCRGRGIFRKNKITPLVGDYVVYQAENDKEGYLMEIKERTNELIRPPICNVDQAVLVFSAVQPSFSTALLDRFLVLVEANDIQPIICITKMDLIEDQDTEDTIQAYAEDYRNIGYDVYLTSSKDQDSLADIIPHFQDKTTVFAGQSGVGKSSLLNAISPELGLRTNEISEHLGRGKHTTRHVELIHTSGGLVADTPGFSSLEFTDIEEEELGYTFPDIREKSSSCKFRGCLHLKEPKCAVKQAVEDGELKQYRYDHYVEFMTEIKDRKPRY | not soluble
MRKLNNHDVHKRYQDRLEEDVEFTINYELPLSCLWSTIKDFSSDFEEKTEAFFILFKELLRRGHLKLQRDGQIIGHTPEEWEQIFREVWPEYEIEPNPLPGYAPFDIGMWLTVEAPAYAVWIDPEDGSEYWAG | soluble
MTDILIDNTATETVRTLIRAFPLVPVSQPPEQGSYLLAEHDTVSLRLVGEKSSVIVDFASGAAQYRRTKGGGELIAKAVNHTAHPTVWDATAGLGRDSFVLASLGLAVTAFEQHPAVACLLSDGIRRALLNPETQNTAAHINLHFGNAAEQMPALVQTQGKPDIVYLDPMYPERRKSAAVKKEMTYFHRLVGEAQDEAALLHTARQTAKKRVVVKRPRLGEHLAGQDPAYQYTGKSTRFDVYLPYGTDKGLEHHHHHH | soluble
MSCDGGKPAPAKLGDEQLAELREIFRSFDQNKDGSLTELELGSLLRSLGLKPSQDQLDTLIQKADRNNNGLVEFSEFVALVEPDLVKCPYTDDQLKAIFRMFDRDGNGYITAAELAHSMAKLGHALTAEELTGMIKEADRDGDGCIDFQEFVQAITSAAFDNAWG | soluble
MSKPDDPAYHWNGAELDLDAYLARIGFAGERAPTLATLRELVYRHTTAIPFENLEAVLGRPVRLDLATLQDKLVHSRRGGYCYENAGLFAAALERLGFGVTGHTGRVTMGAGGLRPATHALLRVTTADDDRVWMCDVGFGRGPLRPYELRPQPDEFTLGDWRFRLERRTGELGTDLWVLHQFGRDGWVDRYTFTTAPQYRIDFEVGNHFVSTSPRSPFTTRPFLQRFHSDRHHVLDGLTLITERPDGSADIRALTPGELPEVINELFDIELPGPDLDALTTGSWLERVAAGTP | soluble
MAHHHHHHMLESFEFDQERKEALNTVAELIASTIEGAESQDVHDVLSSSLHLPHNWQEIVQKRAEQRRKLSATFTLFCEETIATPSTDGNAALDISEAPATCFLPELRPKTMPPVTTSATRGFECPSCGNHWDVVDARKSLRNSNTSSAVRELSNADVGFCPVCEDI | not soluble
MNKKIFVIGSGLSGLVASTELLKKGYHVTMLDQEPRQAIGGQAYWSFGGLFLVNSKIQQRLGVKDSYELALNDWLGSAQFDRPDDEDYWAKQWAEAYVRFATFEKENYLKEMGVRLTPILGWAERGGASASGHGNSVPRFHITWGTGPGLVEPFSRFVLEKEQEGQFKFLPRHQVTDIGIEHNQVTHISGIILEPSDVERGEKSSRTVIDTFHYEVDELLITSGGIGANMPLIRKYWPKRLGNPPKTMIQGVPDSTDGHLIQVTEDAGANIVNKDRMWHYTEGIQNHSPIWSNHGIRIIPGPSSMWFDATGKRMAAPDYPGFDTLHTLETIMKTGYDYSWFILTEDIIKKEFVLSGSEQNPDLTDKDIKLLLQERLGSKATSPVEAFMDKGPDFILADDLGMLVRKMNDLAGNDLLNYETIKHEIKARDLQIDNPFTKDPQVAFINNARQFLGNKLVRTAKPHKILSGRNGRLIAVKLNIISRKTLGGIQTNLDGQALNPSMQPIQGLYAAGEASGFGGGGVHGYRALEGTFLGGCIFSGIRAAEGIHHHIQLEHHHHHH | soluble
MPELSETAERSQSNTPLAMIMDDSDIDYQRFQELVASTDSLAILCHDNPDPDTLASALALEAIAKEWEVPTVDIVYGGTVTHQQNRAMINVLDIELTPIDQVSLSDYGLVAFVDHGIPGQNNSAVEEMTPDIIIDHHPTDGLQGQFVDLRPAVGATATLLTRYLEIFSIELEERLATALLFALHRETLDFNRETTSTEHAAACVLHPHADHNIIEELTNSVFTPETISGIGDAIANREVRGSCLVSSLGWIRERDAVPQAADYLLQLEGVSTTIVYGIVDDNVHLSGRTSNSQLHIGNVMEETFDQVGSAGGHHDMAGGQVPLGFIGSVDDGDDVAIDLINQSMMARLFGALEGWTET | not soluble
MSVIAITGSASGIGAALKELLARAGHTVIGIDRGQADIEADLSTPGGRETAVAAVLDRCGGVLDGLVCCAGVGVTAANSGLVVAVNYFGVSALLDGLAEALSRGQQPAAVIVGSIAATQPGAAELPMVEAMLAGDEARAIELAEQQGQTHLAYAGSKYAVTCLARRNVVDWAGRGVRLNVVAPGAVETPLLQASKADPRYGESTRRFVAPLGRGSEPREVAEAIAFLLGPQASFIHGSVLFVDGGMDALMRAKTF | soluble
MGSDKIHHHHHHMHFIMMKLFRVVKRGYYISYAILDNSTIIRLDEDPIKALMRYSENKEVLGDRVTGIDYQSLLKSFQINDIRITKPIDPPEVWGSGISYEMARERYSEENVAKILGKTIYEKVYDAVRPEIFFKATPNRCVGHGEAIAVRSDSEWTLPEPELAVVLDSNGKILGYTIMDDVSARDLEAENPLYLPQSKIYAGCCAFGPVIVTSDEIKNPYSLDITLKIVREGRVFFEGSVNTNKMRRKIEEQIQYLIRDNPIPDGTILTTGTAIVPGRDKGLKDEDIVEITISNIGTLITPVKKRRKIT | not soluble
MGSDKIHHHHHHMTLLDKDLVSIQEVRTLVRRSKVAQEKLSKMSQEQIDKIVKAVVDAAFNNATKLAKMANEETGFGKWEDKVIKNTFASMGVYETLKNTKTIGIIGEDKEANTIDIATPVGVVAGLIPSTNPTSTVIYKTIISLKAGNTIVFSPHPNAKNCILETVNIISDAAIKAGAPEDSILCITNPSIVGTNELMKHKDTNLILATGGEAMVRAAYSSGTPAIGVGPGNGPAFIDKSANVKLAIKRIIDSKTFDNGVICASEQSIVIEKSMEETVLKELKNQGAYVLNEEESERLAKFILRANGTMNPQIVGKSVEVIANLADLTNVPKNTKVLVARENKVGHNVAYSREKLTPILAFYVEENVEAIMNRCREILLNEGAGHTFSMHVNDEELVKRFALNMPVSRILVNTPSALGGIGASTNLVPALTLGCGAIGGSSTSNNIGPLDLINVKRVAYGIKEIEELGRDKSQVEKSMFDSMDKEELINLLVQKLFKELA | not soluble
MVEELFYKKILKNLFSDPVQITLWNGETIQYGEGEPQFHVTFHKPLSKKEIAKDPSIAFGEAYMNGDLEIEGNLEKAIQSIYKRQDSFLGDSKLQYFKSKWNFSKQKNKDDIAHHYDIGNDFYKLWLDETMTYSCAYFQNEQDSLTTAQHNKVNHILKKLNLQKGDTLLDIGCGWGELITAAAKQYGVKAMGVTLSEEQYAKASERIKQEGLTDLVEVSLLDYRDIKNQKFDKIVSVGMIEHVGKDNITQYFETVNTLLNDGGISLLHCITSPANGGATNGWIEKYIFPGGYVPAVNELITNMTNEQFFIVDVESLRRHYGKTLQHWARNFENVMEEVRKTKDERFIRMWRLYLNACAASFFTGNIDLHQFVFTKGINDTIPMTRSYMYE | not soluble
SLTRNNELIAVGKGSSLKRLPVFGMEPRILYNPLQGQKCIVQTTSWSQCSKTCGTGISTRVTNDNPECRLVKETRICEVRPCGQPVYSSLKKGKKCSKTKKSPEPVRFTYAGCLSVKKYRPKYCGSCVDGRCCTPQLTRTVKMRFRCEDGETFSKNVMMIQSCKCNYNCPHANEAAFPFYRLFNDIHKFRDEG | not soluble
